This is an account of results in patent US20220064282A1 (ZEDA BIOPHARMACEUTICALS, published 2022).

Assay [1] concerns the target T1, IL-1β-his (human, UniProt P01584 117-269).
T1 construct: also called IL1b-His; IL-1β-WT-His
The assay can be described thus: ELISA, IL-1β-his coated, antibody titrated (Example 9, method of Example 6.1); Mean, SD 0.002; lower right table. Background: ELISA stands for enzyme-linked immunosorbent assay.

Assay [2] deals with T1, IL-1β-his. The assay can be described thus: BLI (Fortebio Octet Qke), antibody immobilised on AR2G sensor, IL1β-his 1.56-100 nM, 1:1 fit.
The target of assay [3] is T1, IL-1β-his. Description: ELISA on IL-1β-his (Example 11, method of Example 6.1); sample kept at 40 °C for 7 d; Mean, SD 0.001.
Assay [4] concerns the target T1, IL-1β-his. Description: ELISA, IL-1β-his coated, antibody titrated (Example 9, method of Example 6.1); Mean, SD 0.000; upper left table.
In assay [5] the target is T1, IL-1β-his. Description: ELISA, IL-1β-his coated, antibody titrated (Example 9, method of Example 6.1); Mean, SD 0.000; upper right table.
Assay [6] deals with T1, IL-1β-his. Description: ELISA, IL-1β-his coated.
The target in assay [7] is T1, IL-1β-his. The assay can be described thus: ELISA on IL-1β-his (Example 11, method of Example 6.1); sample kept at 40 °C for 28 d; Mean, SD 0.023.
Assay [8] addresses T1, IL-1β-his. The assay can be described thus: ELISA, IL-1β-his coated, antibody titrated (Example 9, method of Example 6.1); Mean, SD 0.019; lower left table.
Assay [9] deals with T2, IL-1β-hFc (human).
T2 construct: also called IL1b-TEV-hIgG1Fc
The assay can be described thus: competition ELISA, IL-1β-hFc coated, competitor IL1RI(1-332)-his, anti-His detection.

In assay [10] the target is T2, IL-1β-hFc. The assay can be described thus: competition ELISA by the method of Example 6.2, competitor IL1RI.
The target of assay [11] is T2, IL-1β-hFc. Description: competition ELISA, IL-1β-hFc coated, competitor IL1RI(1-332)-his at 0.04 µg/ml, anti-His detection.
The target in assay [12] is T3, IL1β (antigen used as analyte in Biacore) (UniProt P01584 117-269, limits assumed).
T3 construct: also called the antigen
The assay can be described thus: SPR (Biacore), antibody captured on Protein A chip, antigen as analyte. (In general: In SPR one partner is held on a chip, and binding of the other changes the refractive index at the surface.)

For the next assay, the target named is T4, IL-1β-his-bio (human, UniProt P01584 117-269, biotinylated, sites not stated).
T4 construct: also called biotinylated IL1b-His
Description: ELISA, IL-1β-his-bio captured on streptavidin plate.

The target in assay [13] is T2, IL-1β-hFc. The assay can be described thus: competition ELISA: IL-1β-hFc coated, antibody titrated, IL1RI (1-332)-his as the blocked receptor (Example 12, method of Example 6.2).

B1: humanized antibody 18H11 H1L1 (antibody, V domains shown)
VH: QVQLVQSGAEVVKPGASVKISCKASGYLFTGYYMHWVKQAPGKGLEWIGFISCYNGDTTYNQKFQGKATFTVDTSTNTAYMEFNSLTSEDTAVYYCSRSDYYGTSDYWGQGTTLTVSS
VL: EIVLTQSPATMSASPGERVTISCRASSSVSYMHWFQQKPGQAPRLWIYTTSTLATGVPARFSGSGSGTDYTLTISRMEPEDAATYYCQQRIIYPPTFGGGTKLEIKR
As a reminder, the EC50 is the concentration needed to bring the measured effect to its halfway point. Low readings indicate a more potent agent, high ones a less potent agent. A word on the Kd: it is the free concentration of one partner at which half of the binding sites on the other are occupied at equilibrium, for simple one-to-one binding. Turning to B1, the EC50 was 0.051 nM in the assay with IL-1β-his [1]; 0.076 nM in the assay with IL-1β-his [3]; 0.051 nM in the assay with IL-1β-his [4]; 0.051 nM in the assay with IL-1β-his [5]; 0.046 nM with IL-1β-his [6]; 0.133 nM with IL-1β-his [7]. For the same molecule, the EC50 with IL-1β-his [8] was 0.074 nM. The molecule further showed a Kd with IL-1β-his [2] of 0.142 nM.

B2: Positive control antibody PcAb (antibody, human IgG1, kappa, V domains shown)
VH: QVQLVESGGGVVQPGRSLRLSCAASGFTFSVYGMNWVRQAPGKGLEWVAIIWYDGDNQYYADSVKGRFTISRDNSKNTLYLQMNGLRAEDTAVYYCARDLRTGPFDYWGQGTLVTVSS
VL: EIVLTQSPDFQSVTPKEKVTITCRASQSIGSSLHWYQQKPDQSPKLLIKYASQSFSGVPSRFSGSGSGTDFTLTINSLEAEDAAAYYCHQSSSLPFTFGPGTKVDIKR
notes: also called KF021ZP4 PcAb; KF021ZP4 PCAb
A word on the koff: it is the first-order rate constant of dissociation. As usually defined, the kon is the rate constant with which the complex forms. Low values mean slower complex formation, high ones faster complex formation. Broadly, the IC50 is the concentration needed to halve the response being measured. High values mean lower potency, low ones higher potency. Turning to B2, the EC50 with IL-1β-hFc [9] was determined as 0.516 nM; with IL-1β-hFc [11] it was 0.229 nM; with IL-1β-his [6] it was 0.169 nM; with IL-1β-his-bio it was 0.062 nM. Also, the Kd turned out to be 0.179 nM in the assay with IL-1β-his [2] and 0.0616 nM in [12]. Besides, the koff in the assay with IL-1β-his [2] worked out at 0.000105 s⁻¹; in [12] it was 0.000104 s⁻¹. Moreover, the kon in the assay with IL-1β-his [2] was determined as 589000 M⁻¹ s⁻¹; in assay [12], 1.69e+06 M⁻¹ s⁻¹. In the assay with IL-1β-hFc [10], this molecule gave an IC50 of 0.03 nM. For the same molecule, the “IC50 (read off the curve)” value with IL-1β-hFc [13] is ~3 nM.

B3: murine antibody KF021ZP4 9D5 (antibody, V domains shown)
VH: DVQLVESGGGLVQPGGSRKLSCAASGFTFSTFGMHWVRQAPEKGLEWVAYISSGSYTTYYADTVRGRFTISRDNPKNTLFLQMTSLRSEDTAMYYCARDDYDVSNYVMDYWGQGTSVTVSS
VL: DIVLTQSPASLAVSLGQRATISCRASESVEYYGTSLMQWYQQKPGQPPKLLIYAASNVESGVPARFTGSGSGTVFSLNIHPVEEDDIAMYFCQQSRKVPSLTFGAGTKLELK
notes: Mouse monoclonal antibody from hybridoma supernatant
For B3, the figures for the EC50 with IL-1β-hFc [11] and in the assay with IL-1β-his-bio were 0.37 nM and 0.036 nM, respectively.

B4: murine antibody KF021ZP4 19E4 (antibody, V domains shown)
VH: DVQLVESGGGLVQPGGSRKLSCAASGFTFSTFGMHWVRQAPEKGLEWVAYISSGSYTIYYADTVRGRFTISRDNPKNTLFLQMTSLRSEDTAMYYCARDDYDVSYYAMDYWGQGTSVTVSS
VL: DIVLTQSPASLAVSLGQRATISCRASESVEYYGTSLMQWYQQKPGQPPKLLIYAASNVESGVPARFSGSGSGTDFSLNIHPVEEDDIAMYFCQQSRKVPSLTFGAGTKLELK
notes: as for B3
For B4, the results for the EC50 in the assay with IL-1β-hFc [11] and with IL-1β-his-bio were 0.892 nM and 0.726 nM, respectively.

B5: murine antibody KF021ZP4 18H11 (antibody, V domains shown)
VH: EVQLQQSGPELVKTGASVKISCKASGYLFTGYYMHWVKQSHGKSLEWIGFISCYNGDTTYNQKFKDKATFTVDTSSNTAYMQFNSLTSEDSAVYYCSRSDYYGTSDYWGQGTTLTVSS
VL: QIVLTQSPAIMSASPGEKVTITCSASSSVSYMHWFQQKPGTSPKLWIYTTSTLASGVPARFSGSGSGTSYSLTISRMEAEDAATYYCQQRIIYPPTFGGGTKLEIK
notes: as for B3
As for B5, the results for the EC50 in the assay with IL-1β-hFc [11] and with IL-1β-his-bio were 0.389 nM and 0.174 nM, respectively.
